Measured values taken from patent US20050239140A1 (Janssen / Centocor, published 2005).

T1: murine Tissue Factor in murine brain extracts (murine, UniProt P20352 29-294)
T1 sequence (looked up): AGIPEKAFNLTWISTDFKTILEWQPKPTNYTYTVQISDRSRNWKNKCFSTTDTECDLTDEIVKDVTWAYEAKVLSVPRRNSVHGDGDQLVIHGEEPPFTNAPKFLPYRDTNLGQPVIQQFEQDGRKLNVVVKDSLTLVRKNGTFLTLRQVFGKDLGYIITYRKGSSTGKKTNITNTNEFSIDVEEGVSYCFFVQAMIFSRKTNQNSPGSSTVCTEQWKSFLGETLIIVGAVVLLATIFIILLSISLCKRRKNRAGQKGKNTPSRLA

T2: murine Tissue Factor on B6F10 melanoma cells (murine, UniProt P20352 29-294)
T2 construct: whole, on cells; also called cell-associated mTF
T2 sequence (looked up): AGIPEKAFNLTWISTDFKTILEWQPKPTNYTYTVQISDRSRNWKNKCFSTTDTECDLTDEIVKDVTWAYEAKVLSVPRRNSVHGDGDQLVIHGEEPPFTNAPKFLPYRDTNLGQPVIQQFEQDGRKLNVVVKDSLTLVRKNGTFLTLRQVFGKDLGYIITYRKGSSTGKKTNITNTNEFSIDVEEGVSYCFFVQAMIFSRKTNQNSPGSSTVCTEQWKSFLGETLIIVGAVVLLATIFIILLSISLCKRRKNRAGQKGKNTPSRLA


What was measured:
[1] = target: T1, murine Tissue Factor in murine brain …; assay: cell-based or functional assay
[2] = target: T2, murine Tissue Factor on B6F10 melanoma …; assay: FACS on B6F10 melanoma cells that express mTF

Binder	EC50 Conc. (ug/ml), inhibition of fibrin clot formation in human plasma with murine brain extracts as source of mTF [1] [µg/mL]	EC50 [2] [nM]
PHD103 Fab (Fab, V domains shown) VH: QVQLVQSGAEVKKPGESLKISCKGSGYSFSNSWIAWVRQMPGKGLEWMGGIIGPGHSYTKYSPSFQGQVTISADKSISTAYLQWSSLKASDTAMYYCARINMGYFDYWGQGTLVTVSS VL: DIELTQPPSVSVAPGQTARISCSGDSLGLKKFVSWYQQKPGQAPVLVIYDDSNRPSGIPERFSGSNSGNTATLTISGTQAEDEADYYCGTYDQTIGHDVVFGGGTKLTVLG	63.3	–
PHD104 Fab (Fab, V domains shown) VH: QVQLVQSGAEVKKPGESLKISCKGSYSFTSNWIGWVRQMPGKGLEWMGWIYPSDSMTRYSPSFQGQVTISADKSISTAYLQWSSLKASDTAMYYCARYLFGLFDNWGQGTLVTVSS VL: DIELTQPPSVSVAPGQTARISCSGDNLGSYYVSWYQQKPGQAPVLVIYNDNNRPSGIPERFSGSNSGNTATLTISGTQAEDEADYYCATYDSSTDVFGGGTKLTVLG	23.8	–
PHD126 Fab (Fab, V domains shown) VH: QVQLVQSGAEVKKPGESLKISCKGSYSFSNYWIGWVRQMPGKGLEWMGFIDPDDSDTNYSPSFQGQVTISADKSISTAYLQWSSLKASDTAMYYCARALYMQGGSFDSWGQGTLVTVSS VL: DIELTQPPSVSVAPGQTARISCSGDNLGSYYVSWYQQKPGQAPVLVIYRDTDRPSGIPERFSGSNSGNTATLTISGTQAEDEADYYCQSYDYGVSNQVFGGGTKLTVLG	0.23	–
PHD127 Fab (Fab, V domains shown, HuCAL Fab; The assignment of 8 (VH) and 9 (VL) to PHD127 follows the order of listing) VH: QVQLVQSGAEVKKPGESLKISCKGSYSFTNSWISWVRQMPGKGLEWMGIIDPDDSYTSYSPSFQGQVTISADKSISTAYLQWSSLKASDTAMYYCARGAGYGRMFGDVWGQGTLVTVSS VL: DIELTQPPSVSVAPGQTARISCSGDNLGSYYASWYQQKPGQAPVLVIYQDDNRPSGIPERFSGSNSGNTATLTISGTQAEDEADYYCGAYTYSTSWVFGGGTKLTVLG	0.82	4.35
